In patent publication US20210246166A1 (Bayer, published 2021):
Numbered stars: 1 amine (or outer) side, 2 acyl side, 3 side chain; on linkers, the order of the positions; unused ones are H or OH. Bridge positions count the residues as written; N and C are the ends. Square brackets hold non-standard residues; d marks the D form. Ends that are not written are not given here. * marks the point of attachment. (N-Benzyl)D = (2S)-2-Amino-4-(benzylamino)-4-oxobutanecarboxylic acid, O=C(C[C@H](N[*:1])C(=O)[*:2])NCc1ccccc1; X10 = (2R)‑2‑amino‑3‑(trifluoromethylsulfanyl)propanoic acid, O=C([C@H](CSC(F)(F)F)N[*:1])[*:2]; (3-Chloro-Ph)G = 3-chlorophenylglycine, O=C([C@@H](N[*:1])c1cccc(Cl)c1)[*:2]; Phe(2,5-diF) = O=C([C@H](Cc1cc(F)ccc1F)N[*:1])[*:2]; NH(CH2CH2O)4CH2CO = O=C(COCCOCCOCCOCCN[*:1])[*:2]; Pro(cis-4-CF3) = O=C(O)[C@@H]1C[C@H](C(F)(F)F)CN1; C18 diacid = O=C(O)CCCCCCCCCCCCCCCCC(=O)*; Oic = O=C(O)[C@@H]1C[C@@H]2CCCC[C@@H]2N1; tBuAla = CC(C)(C)C[C@H](N)C(=O)O; Aad = N[C@@H](CCCC(=O)O)C(=O)O; Pen = CC(C)(S)[C@H](N)C(=O)O; PEG3 = NCCOCCOCCOCCC(=O)O; NMeA = CN[C@@H](C)C(=O)O; Orn = NCCC[C@H](N)C(=O)O; dβPro = D-beta-Proline; Sar = CNCC(=O)O

T1: Recombinant human MASP1 enzyme (fragment corresponding to amino acids 297-699, C-terminal His Tag) (human, UniProt P48740 297-699)
T1 sequence: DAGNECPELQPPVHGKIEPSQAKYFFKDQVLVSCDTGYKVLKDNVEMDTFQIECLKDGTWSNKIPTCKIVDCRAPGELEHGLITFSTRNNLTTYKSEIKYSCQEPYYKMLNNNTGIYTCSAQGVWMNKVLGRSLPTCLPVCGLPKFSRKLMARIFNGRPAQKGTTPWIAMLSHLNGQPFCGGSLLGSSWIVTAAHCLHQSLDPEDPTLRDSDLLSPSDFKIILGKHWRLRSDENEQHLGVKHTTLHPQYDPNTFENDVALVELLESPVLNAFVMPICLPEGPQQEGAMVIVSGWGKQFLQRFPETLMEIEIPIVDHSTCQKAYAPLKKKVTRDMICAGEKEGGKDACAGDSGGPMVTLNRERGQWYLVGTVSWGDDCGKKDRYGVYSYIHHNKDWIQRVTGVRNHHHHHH


Experiments:
[1] = target: Recombinant human MASP2 enzyme (fragment corresponding to amino acids 297-686, C-terminal His Tag) (human, UniProt O00187 297-686); test: cell-based or functional assay
[2] = target: T1, Recombinant human MASP1 enzyme …; test: cell-based or functional assay

Sequence of Recombinant human MASP2 enzyme (fragment corresponding to amino acids 297-686, C-terminal His Tag) (O00187 other isoform, or with tags, fused parts or gaps limits assumed): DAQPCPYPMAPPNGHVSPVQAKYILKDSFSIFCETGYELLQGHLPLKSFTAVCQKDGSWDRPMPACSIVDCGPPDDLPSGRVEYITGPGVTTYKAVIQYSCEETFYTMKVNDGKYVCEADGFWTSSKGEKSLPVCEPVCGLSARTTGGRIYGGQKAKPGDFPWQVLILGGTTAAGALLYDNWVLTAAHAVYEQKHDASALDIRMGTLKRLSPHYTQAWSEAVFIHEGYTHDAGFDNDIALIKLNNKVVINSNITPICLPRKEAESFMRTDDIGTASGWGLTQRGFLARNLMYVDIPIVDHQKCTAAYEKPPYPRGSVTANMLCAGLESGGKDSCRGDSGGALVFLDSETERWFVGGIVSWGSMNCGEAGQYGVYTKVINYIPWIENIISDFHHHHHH

| Binder | human MASP2 IC50 [1] [nM] | human MASP1 IC50 [2] [nM] |
| --- | --- | --- |
| [Sar]ICSRSLP[Oic]I[Pen]IP[Aad]-OH (disulfide 3-11; N-terminus assumed; SMILES CC[C@H](C)[C@H](NC(=O)CNC)C(=O)N[C@H]1CSSC(C)(C)[C@@H](C(=O)N[C@H](C(=O)N2CCC[C@H]2C(=O)N[C@@H](CCCC(=O)O)C(=O)O)[C@@H](C)CC)NC(=O)[C@H]([C@@H](C)CC)NC(=O)[C@@H]2C[C@@H]3CCCC[C@@H]3N2C(=O)[C@@H]2CCCN2C(=O)[C@H](CC(C)C)NC(=O)[C@H](CO)NC(=O)[C@H](CCCNC(=N)N)NC(=O)[C@H](CO)NC1=O) [((N-Me)G)-IC+SRSLP-(Oic)-I-(Pen)+IP-(AAD)-OH] | 150 | 7 |
| [Sar]ICSRS[2‑Amino‑5,5,5‑trifluoro‑4‑methyl‑pentanoic acid]PPI[Pen]IPD-OH (disulfide 3-11) [((N-Me)G)-IC+SRS-(2-Amino-5,5,5-trifluoro-4-methyl-pentanoic acid)-PPI-(Pen)+IPD-OH] | 330 | 14 |
| AICSRS[tBuAla]P[Pro(cis-4-CF3)]I[Pen]IPD-OH (disulfide 3-11; N-terminus assumed; SMILES CC[C@H](C)[C@H](NC(=O)[C@H](C)N)C(=O)N[C@H]1CSSC(C)(C)[C@@H](C(=O)N[C@H](C(=O)N2CCC[C@H]2C(=O)N[C@@H](CC(=O)O)C(=O)O)[C@@H](C)CC)NC(=O)[C@H]([C@@H](C)CC)NC(=O)[C@@H]2C[C@H](C(F)(F)F)CN2C(=O)[C@@H]2CCCN2C(=O)[C@H](CC(C)(C)C)NC(=O)[C@H](CO)NC(=O)[C@H](CCCNC(=N)N)NC(=O)[C@H](CO)NC1=O) [AIC+SRS-((tBu)A)-P-((4-CF3)P)-I-(Pen)+IPD-OH] | 510 | 3.1 |
| AICSRSL[(1S,2S,5R)‑3‑Azabicyclo(3.1.0)hexane‑2‑carboxylic acid]PI[Pen]IPD-OH (disulfide 3-11) [AIC+SRSL-((1S,2S,5R)-3-Azabicyclo[3.1.0]hexane-2-carboxylic acid)-PI-(Pen)+IPD-OH] | 27 | 1.7 |
| [Sar]ICSRS[tBuAla]PPI[Pen]IP[PEG3]-OH (disulfide 3-11; N-terminus assumed; SMILES CC[C@H](C)[C@H](NC(=O)CNC)C(=O)N[C@H]1CSSC(C)(C)[C@@H](C(=O)N[C@H](C(=O)N2CCC[C@H]2C(=O)NCCOCCOCCOCCC(=O)O)[C@@H](C)CC)NC(=O)[C@H]([C@@H](C)CC)NC(=O)[C@@H]2CCCN2C(=O)[C@@H]2CCCN2C(=O)[C@H](CC(C)(C)C)NC(=O)[C@H](CO)NC(=O)[C@H](CCCNC(=N)N)NC(=O)[C@H](CO)NC1=O) [((N-Me)G)-IC+SRS-((tBu)A)-PPI-(Pen)+IP-(PEG2(13 atoms))-OH] | 46 | 5.3 |
| AICSRSLPP[(3-Chloro-Ph)G]CIPD-OH (disulfide 3-11; N-terminus assumed; SMILES CC[C@H](C)[C@H](NC(=O)[C@H](C)N)C(=O)N[C@H]1CSSC[C@@H](C(=O)N[C@H](C(=O)N2CCC[C@H]2C(=O)N[C@@H](CC(=O)O)C(=O)O)[C@@H](C)CC)NC(=O)[C@H](c2cccc(Cl)c2)NC(=O)[C@@H]2CCCN2C(=O)[C@@H]2CCCN2C(=O)[C@H](CC(C)C)NC(=O)[C@H](CO)NC(=O)[C@H](CCCNC(=N)N)NC(=O)[C@H](CO)NC1=O) [AIC+SRSLPP-((3-Chloro-Ph)G)-C+IPD-OH] | 1000 | 526 |
| [Sar]FCTRK[tBuAla][Pen]YPD-OH (disulfide 3-8; N-terminus assumed; SMILES CNCC(=O)N[C@@H](Cc1ccccc1)C(=O)N[C@H]1CSSC(C)(C)[C@@H](C(=O)N[C@@H](Cc2ccc(O)cc2)C(=O)N2CCC[C@H]2C(=O)N[C@@H](CC(=O)O)C(=O)O)NC(=O)[C@H](CC(C)(C)C)NC(=O)[C@H](CCCCN)NC(=O)[C@H](CCCNC(=N)N)NC(=O)[C@H]([C@@H](C)O)NC1=O) [((N-Me)G)-FC+TRK-((tBu)A)-(Pen)+YPD-OH] | 1000 | 1000 |
| [NMeA]ICSRSLP[Oic]I[Pen]IP[(N-Benzyl)D]-NH2 (disulfide 3-11) [((N-Me)A)-IC+SRSLP-(Oic)-I-(Pen)+IP-((N-Benzyl)D)-NH2] | – | 12 |
| {(2S)‑2‑(morpholin-4-yl)propanoic acid}-ICSRSLP[Oic]I[Pen]IPD-OH (disulfide 2-10) [((2S)-2-(morpholin-4-yl)propanoic acid)-IC+SRSLP-(Oic)-I-(Pen)+IPD-OH] | 170 | 70 |
| [Orn]ICSRS[X10]PPI[Pen]IPD-OH (disulfide 3-11; N-terminus assumed; SMILES CC[C@H](C)[C@H](NC(=O)[C@@H](N)CCCN)C(=O)N[C@H]1CSSC(C)(C)[C@@H](C(=O)N[C@H](C(=O)N2CCC[C@H]2C(=O)N[C@@H](CC(=O)O)C(=O)O)[C@@H](C)CC)NC(=O)[C@H]([C@@H](C)CC)NC(=O)[C@@H]2CCCN2C(=O)[C@@H]2CCCN2C(=O)[C@H](CSC(F)(F)F)NC(=O)[C@H](CO)NC(=O)[C@H](CCCNC(=N)N)NC(=O)[C@H](CO)NC1=O) [(Orn)-IC+SRS-((2R)-2-amino-3-(trifluoromethylsulfanyl)propanoic acid)-PPI-(Pen)+IPD-OH] | – | 3.1 |
| [Sar]ICSRS[(2S)‑2‑Amino‑5‑methyl‑hexanoic acid]PPI[Pen]IPD-OH (disulfide 3-11) [((N-Me)G)-IC+SRS-((2S)-2-Amino-5-methyl-hexanoic acid)-PPI-(Pen)+IPD-OH] | 70 | 65 |
| [Sar]ICSRS[tBuAla]PPI[Pen]IP[NH(CH2CH2O)4CH2CO]-OH (disulfide 3-11; N-terminus assumed; SMILES CC[C@H](C)[C@H](NC(=O)CNC)C(=O)N[C@H]1CSSC(C)(C)[C@@H](C(=O)N[C@H](C(=O)N2CCC[C@H]2C(=O)NCCOCCOCCOCCOCC(=O)O)[C@@H](C)CC)NC(=O)[C@H]([C@@H](C)CC)NC(=O)[C@@H]2CCCN2C(=O)[C@@H]2CCCN2C(=O)[C@H](CC(C)(C)C)NC(=O)[C@H](CO)NC(=O)[C@H](CCCNC(=N)N)NC(=O)[C@H](CO)NC1=O) [((N-Me)G)-IC+SRS-((tBu)A)-PPI-(Pen)+IP-(PEG4-CH2CO2H(15 atoms))-OH] | 76 | 6.2 |
| AICSRSLP[Pro(cis-4-CF3)]ICIPD-OH (disulfide 3-11; N-terminus assumed; SMILES CC[C@H](C)[C@H](NC(=O)[C@H](C)N)C(=O)N[C@H]1CSSC[C@@H](C(=O)N[C@H](C(=O)N2CCC[C@H]2C(=O)N[C@@H](CC(=O)O)C(=O)O)[C@@H](C)CC)NC(=O)[C@H]([C@@H](C)CC)NC(=O)[C@@H]2C[C@H](C(F)(F)F)CN2C(=O)[C@@H]2CCCN2C(=O)[C@H](CC(C)C)NC(=O)[C@H](CO)NC(=O)[C@H](CCCNC(=N)N)NC(=O)[C@H](CO)NC1=O) [AIC+SRSLP-((4-CF3)P)-IC+IPD-OH] | 1000 | 7.5 |
| [Sar]ICSRS[Phe(2,5-diF)]PPI[Pen]IP[dE]-OH (disulfide 3-11; N-terminus assumed; SMILES CC[C@H](C)[C@H](NC(=O)CNC)C(=O)N[C@H]1CSSC(C)(C)[C@@H](C(=O)N[C@H](C(=O)N2CCC[C@H]2C(=O)N[C@H](CCC(=O)O)C(=O)O)[C@@H](C)CC)NC(=O)[C@H]([C@@H](C)CC)NC(=O)[C@@H]2CCCN2C(=O)[C@@H]2CCCN2C(=O)[C@H](Cc2cc(F)ccc2F)NC(=O)[C@H](CO)NC(=O)[C@H](CCCNC(=N)N)NC(=O)[C@H](CO)NC1=O) [((N-Me)G)-IC+SRS-((2,5-Difluoro)F)-PPI-(Pen)+IPe-OH] | 64 | 21 |
| [Sar]ICSRS[Phe(2,5-diF)]PPI[Pen]IPD[dD]-OH (disulfide 3-11; N-terminus assumed; SMILES CC[C@H](C)[C@H](NC(=O)CNC)C(=O)N[C@H]1CSSC(C)(C)[C@@H](C(=O)N[C@H](C(=O)N2CCC[C@H]2C(=O)N[C@@H](CC(=O)O)C(=O)N[C@H](CC(=O)O)C(=O)O)[C@@H](C)CC)NC(=O)[C@H]([C@@H](C)CC)NC(=O)[C@@H]2CCCN2C(=O)[C@@H]2CCCN2C(=O)[C@H](Cc2cc(F)ccc2F)NC(=O)[C@H](CO)NC(=O)[C@H](CCCNC(=N)N)NC(=O)[C@H](CO)NC1=O) [((N-Me)G)-IC+SRS-((2,5-Difluoro)F)-PPI-(Pen)+IPDd-OH] | 20 | 17 |
| {C18 diacid}-AICSRSLP[Oic]I[Pen]IPD[Orn]-OH (disulfide 3-11; SMILES CC[C@H](C)[C@H](NC(=O)[C@H](C)NC(=O)CCCCCCCCCCCCCCCCC(=O)O)C(=O)N[C@H]1CSSC(C)(C)[C@@H](C(=O)N[C@H](C(=O)N2CCC[C@H]2C(=O)N[C@@H](CC(=O)O)C(=O)N[C@@H](CCCN)C(=O)O)[C@@H](C)CC)NC(=O)[C@H]([C@@H](C)CC)NC(=O)[C@@H]2C[C@@H]3CCCC[C@@H]3N2C(=O)[C@@H]2CCCN2C(=O)[C@H](CC(C)C)NC(=O)[C@H](CO)NC(=O)[C@H](CCCNC(=N)N)NC(=O)[C@H](CO)NC1=O) [(ODD)-AIC+SRSLP-(Oic)-I-(Pen)+IPD-(Orn)-OH] | 1000 | 1000 |
| [dβPro]ICSRS[tBuAla]PPI[Pen]IPD-OH (disulfide 3-11) [(beta-p)-IC+SRS-((tBu)A)-PPI-(Pen)+IPD-OH] | – | 2.5 |
